One may read the Kd as a measure of binding affinity in units of concentration. Low readings indicate a tighter complex, high ones a looser complex.

Our source for the Kd values is PMC4735555 (2016).

In the test the target is 2N5.1 TCR. The test can be described thus: SPR; Mamu-B*098 loaded with C14nef5. A general note: Surface plasmon resonance follows binding to a sensor surface in real time, without labels.

B1: β2m-linked Mamu-B*098 protein (single-chain, refolded without C14nef5, biotinylated) (other)
chain: IQRTPKIQVYSRHPPENGKPNFLNCYVSGFHPSDIEVDLLKNGEKMGKVEHSDLSFSKDWSFYLLYYTEFTPNEKDEYACRVNHVTLSGPRTVKWDRDMGGGGSGGSGSGGGSSGSHSMRYFSTTVSRPGRGEPRFIVVGYVDDTQFVRFDSDAASPKMEPRAPWMEQEGPEYWEEQTRRVKDAAQTFRVSLGNLRGYYNQSEAGSHTLQTMSGCDLGPDGRLLRGYYQQAYDGRDYIALNEDLRSWTAADEAAQNTQRKWEAAGVAEQWRAYLEGECLESLRRYLENGKETLQRAEPPKTHVTHHPVSDHEATLRCWALGFYPAEITLTWQRDGEDQTQDTELVETRPGGDGTFQKWGAVVVPSGEEQRYTCHVQHEGLPEPLTLRWEPLHHILDAQKMVWNHR
modifications: biotin (BirA) on the biotinylation sequence peptide
Turning to B1, binding was characterised by a dissociation constant (Kd) of 2500 nM.
